Test system: CC(=O)SCCNC(=O)CCNC(=O)[C@H](O)C(C)(C)COP(=O)(O)OP(=O)(O)OC[C@H]1O[C@@H](n2cnc3c(N)ncnc32)[C@H](O)[C@@H]1OP(=O)(O)O
Experiment: discontinuous colorimetric DTNB assay
Type: biochemical, Pseudomonas aeruginosa
Details: 5 mM polymyxin B constant, 50 mM Tris-HCl pH 8.0, 37 °C

Row | Substance | Km [mM] | kcat [s⁻¹] | kcat/Km [M⁻¹ s⁻¹]
1 | PA3944 (tagged) (Pseudomonas aeruginosa PAO1) | 0.118 ± 0.028 | 0.602 | 5100
2 | PA3944 (cleaved) (Pseudomonas aeruginosa PAO1) | 0.137 ± 0.020 | 0.61 | 4450

From article PMC6474815
